In patent publication US20080311132A1:

How the values were obtained:
Factor B [1] = biological target: Factor B (UniProt P00751); assay: SPR (Biacore), CVF on the chip, factor B in solution, in EDTA
[2] = biological target: Bb, the activated form of factor B (UniProt P00751); assay: SPR (Biacore) at 25° C., half-life of the C3 convertase formed on CVF on the chip
Factor H = Factor H (UniProt P08603); assay: SPR (Biacore), CVF on the chip, factor H in solution
Factor B [3] = biological target: Factor B (UniProt P00751); assay: SPR (Biacore), CVF on the chip, factor B in solution, with Mg
C5 = C5 (UniProt P01031); assay: SPR (Biacore), CVF on the chip, C5 in solution
Chain of C5 (P01031 19-673 limits assumed, form in doubt, chain 1 of 2): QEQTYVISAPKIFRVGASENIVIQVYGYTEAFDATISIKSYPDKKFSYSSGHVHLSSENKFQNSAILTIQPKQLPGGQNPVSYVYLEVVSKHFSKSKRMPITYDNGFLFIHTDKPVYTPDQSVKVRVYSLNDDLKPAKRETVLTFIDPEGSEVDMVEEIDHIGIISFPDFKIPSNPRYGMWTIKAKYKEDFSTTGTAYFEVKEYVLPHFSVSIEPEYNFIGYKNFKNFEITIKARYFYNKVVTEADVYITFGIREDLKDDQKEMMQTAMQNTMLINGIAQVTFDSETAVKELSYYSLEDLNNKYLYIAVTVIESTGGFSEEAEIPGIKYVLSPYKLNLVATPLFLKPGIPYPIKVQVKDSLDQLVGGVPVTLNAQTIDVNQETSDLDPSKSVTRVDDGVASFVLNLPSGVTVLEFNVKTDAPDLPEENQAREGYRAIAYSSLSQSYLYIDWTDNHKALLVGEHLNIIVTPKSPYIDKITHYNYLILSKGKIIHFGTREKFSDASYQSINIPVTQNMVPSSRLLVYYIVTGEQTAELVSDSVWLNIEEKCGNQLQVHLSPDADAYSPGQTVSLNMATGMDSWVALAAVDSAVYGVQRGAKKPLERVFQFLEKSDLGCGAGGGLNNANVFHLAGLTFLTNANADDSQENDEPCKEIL
Chain of C5 (P01031 678-1676 limits assumed, form in doubt, chain 2 of 2): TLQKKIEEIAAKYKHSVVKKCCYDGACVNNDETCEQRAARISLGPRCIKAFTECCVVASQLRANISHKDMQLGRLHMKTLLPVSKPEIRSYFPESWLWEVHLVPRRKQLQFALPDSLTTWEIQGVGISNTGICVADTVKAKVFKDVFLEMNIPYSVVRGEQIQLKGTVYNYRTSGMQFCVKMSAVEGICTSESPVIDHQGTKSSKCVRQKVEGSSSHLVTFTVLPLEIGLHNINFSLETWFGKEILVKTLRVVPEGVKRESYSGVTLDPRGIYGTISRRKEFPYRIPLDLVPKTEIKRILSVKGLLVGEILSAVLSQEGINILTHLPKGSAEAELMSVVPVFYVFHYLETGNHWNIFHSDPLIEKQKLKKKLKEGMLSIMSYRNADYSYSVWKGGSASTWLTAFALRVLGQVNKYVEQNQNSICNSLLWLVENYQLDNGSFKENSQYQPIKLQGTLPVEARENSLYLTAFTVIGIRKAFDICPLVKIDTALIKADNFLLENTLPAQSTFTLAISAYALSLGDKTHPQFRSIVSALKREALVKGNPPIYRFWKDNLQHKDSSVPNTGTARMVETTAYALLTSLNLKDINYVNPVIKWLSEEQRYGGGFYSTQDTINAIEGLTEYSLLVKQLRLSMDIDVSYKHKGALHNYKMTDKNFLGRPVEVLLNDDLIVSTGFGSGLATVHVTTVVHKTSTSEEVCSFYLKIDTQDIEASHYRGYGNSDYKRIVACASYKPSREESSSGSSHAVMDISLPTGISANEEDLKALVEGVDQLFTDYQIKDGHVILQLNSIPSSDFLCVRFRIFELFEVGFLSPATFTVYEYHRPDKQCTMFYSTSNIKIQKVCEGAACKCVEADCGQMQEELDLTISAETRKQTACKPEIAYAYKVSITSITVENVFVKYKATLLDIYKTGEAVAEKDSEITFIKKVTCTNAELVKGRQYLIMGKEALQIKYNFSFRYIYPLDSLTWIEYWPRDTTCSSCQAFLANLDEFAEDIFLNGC

Factor B [4] = biological target: Factor B (UniProt P00751); assay: SPR (Biacore), CVF on the chip, factor B in solution, with factor D and Mg

Chain of Factor B (P00751 26-764 limits assumed): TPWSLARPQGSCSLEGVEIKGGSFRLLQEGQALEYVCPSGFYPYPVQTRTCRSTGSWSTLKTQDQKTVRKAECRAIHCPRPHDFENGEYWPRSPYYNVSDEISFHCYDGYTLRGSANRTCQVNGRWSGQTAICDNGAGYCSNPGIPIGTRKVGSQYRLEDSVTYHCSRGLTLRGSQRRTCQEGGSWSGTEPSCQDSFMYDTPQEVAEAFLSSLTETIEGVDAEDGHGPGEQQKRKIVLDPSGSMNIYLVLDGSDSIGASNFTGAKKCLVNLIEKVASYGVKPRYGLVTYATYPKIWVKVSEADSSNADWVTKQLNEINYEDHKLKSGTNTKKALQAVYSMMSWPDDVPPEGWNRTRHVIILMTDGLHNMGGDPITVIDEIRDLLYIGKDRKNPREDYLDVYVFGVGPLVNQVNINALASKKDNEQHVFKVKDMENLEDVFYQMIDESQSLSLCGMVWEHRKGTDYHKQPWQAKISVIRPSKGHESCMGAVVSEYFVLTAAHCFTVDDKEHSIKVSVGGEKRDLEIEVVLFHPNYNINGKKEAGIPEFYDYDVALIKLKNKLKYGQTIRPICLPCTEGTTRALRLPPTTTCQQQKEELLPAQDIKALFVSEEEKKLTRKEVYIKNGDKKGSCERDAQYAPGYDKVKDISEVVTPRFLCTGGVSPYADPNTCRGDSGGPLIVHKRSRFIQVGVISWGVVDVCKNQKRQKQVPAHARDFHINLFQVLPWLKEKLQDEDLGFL
Chain of Cobra Venom Factor (Q91132 23-649 limits assumed): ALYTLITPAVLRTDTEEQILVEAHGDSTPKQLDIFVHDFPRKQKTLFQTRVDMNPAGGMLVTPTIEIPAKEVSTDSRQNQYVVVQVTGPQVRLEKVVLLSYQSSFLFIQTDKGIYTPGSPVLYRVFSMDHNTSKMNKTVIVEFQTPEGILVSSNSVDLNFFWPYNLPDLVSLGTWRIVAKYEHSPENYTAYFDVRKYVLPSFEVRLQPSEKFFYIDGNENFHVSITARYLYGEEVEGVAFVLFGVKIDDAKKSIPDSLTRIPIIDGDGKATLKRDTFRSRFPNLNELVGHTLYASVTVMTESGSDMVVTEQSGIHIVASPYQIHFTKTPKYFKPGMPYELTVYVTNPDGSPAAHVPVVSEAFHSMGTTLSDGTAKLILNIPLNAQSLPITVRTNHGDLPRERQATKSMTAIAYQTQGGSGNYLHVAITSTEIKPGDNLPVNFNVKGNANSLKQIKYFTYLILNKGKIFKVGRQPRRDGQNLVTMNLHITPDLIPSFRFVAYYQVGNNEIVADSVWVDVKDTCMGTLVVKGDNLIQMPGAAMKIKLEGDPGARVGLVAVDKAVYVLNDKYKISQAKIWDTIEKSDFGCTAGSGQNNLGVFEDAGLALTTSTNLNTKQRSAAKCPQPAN
Chain of Cobra Venom Factor (Q91132 733-984 limits assumed): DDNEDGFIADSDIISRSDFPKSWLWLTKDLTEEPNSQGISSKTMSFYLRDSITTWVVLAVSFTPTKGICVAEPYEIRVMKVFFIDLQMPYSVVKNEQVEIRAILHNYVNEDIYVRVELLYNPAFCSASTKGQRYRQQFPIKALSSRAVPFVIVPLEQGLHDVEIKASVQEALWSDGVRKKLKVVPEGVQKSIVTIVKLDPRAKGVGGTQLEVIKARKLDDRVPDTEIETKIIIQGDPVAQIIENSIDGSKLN
Chain of Cobra Venom Factor (Q91132 1264-1642 limits assumed): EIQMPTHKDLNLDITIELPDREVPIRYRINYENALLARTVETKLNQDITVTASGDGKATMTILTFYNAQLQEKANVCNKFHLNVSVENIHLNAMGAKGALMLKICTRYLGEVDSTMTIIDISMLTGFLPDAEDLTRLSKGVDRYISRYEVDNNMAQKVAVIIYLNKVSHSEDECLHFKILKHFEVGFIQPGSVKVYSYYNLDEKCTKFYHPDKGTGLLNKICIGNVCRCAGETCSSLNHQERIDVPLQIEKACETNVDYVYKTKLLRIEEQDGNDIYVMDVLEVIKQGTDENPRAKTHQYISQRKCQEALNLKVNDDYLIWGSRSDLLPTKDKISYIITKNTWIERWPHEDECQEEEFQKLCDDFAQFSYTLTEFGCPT
Chain of Bb, the activated form of factor B (P00751 260-764 limits assumed): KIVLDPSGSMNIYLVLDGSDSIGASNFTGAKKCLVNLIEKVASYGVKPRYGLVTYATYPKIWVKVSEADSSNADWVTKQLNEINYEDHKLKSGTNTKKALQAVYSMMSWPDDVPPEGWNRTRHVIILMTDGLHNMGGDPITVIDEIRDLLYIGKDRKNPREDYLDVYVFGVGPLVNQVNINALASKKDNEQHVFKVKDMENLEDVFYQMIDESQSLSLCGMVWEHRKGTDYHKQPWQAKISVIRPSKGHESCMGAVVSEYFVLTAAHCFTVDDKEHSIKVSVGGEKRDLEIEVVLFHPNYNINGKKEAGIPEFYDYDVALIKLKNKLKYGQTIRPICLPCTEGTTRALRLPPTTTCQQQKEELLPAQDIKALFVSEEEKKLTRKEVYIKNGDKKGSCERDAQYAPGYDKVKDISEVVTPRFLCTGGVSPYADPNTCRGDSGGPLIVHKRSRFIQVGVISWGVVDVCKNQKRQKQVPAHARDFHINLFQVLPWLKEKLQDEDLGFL

Substance “Cobra Venom Factor (from UniProt Q91132 23-649; Q91132 733-984; Q91132 1264-1642)” has an Amount of protein bound (RU) (Factor B [1]) of 99 RU, a T½ of C3 convertase [2] of 18.3 h and an Amount of protein bound (RU) (Factor H) of -14 RU. The Amount of protein bound (RU) (Factor B [3]) was 298 RU, the Amount of protein bound (RU) (C5) was 617 RU and the Amount of protein bound (RU) (Factor B [4]) was 370 RU.
